B1: HF2-5 Fab fragment (Fab, V domains shown)
VH: EVQLVESGGGLVQPGGSLRLSCAASGFMIRSHGMQWVRQAPGKGLEYVAGISSDGSWARHSAAVEGRFTISRDDSKNTAYLQMNSLRAEDTAVYYCARDFSTGYGADSIDAWGQGTLVTVSS
VL: DIQMTQSPSSLSASVGDRVTITCSGGSDSAYGYGWYQQKPGKAPKTLIYWDDKRPSGVPSRFSGSRSGTDFTLTISSLQPEDFATYYCGAWEYSGGVGIFGQGTKVEIKR
notes: Prior art antibody disclosed in EP3006465
B2: VEGF-0089 Fab fragment (Fab, V domains shown)
VH: EVQLVESGGGLVQPGGSLRLSCAASGFTFTNYAMTWVRQAPGKGLEWVSSIGNGGGIYTYYADSVKGRFTISRDNSKNTLYLQMNSLRAEDTAVYYCAKGDNLFDSWGPGTLVTVSS
VL: DIQMTQSPASLSASVGDRVTITCRASQSIYSSLNWYQQKPGKAPKLLIYASTLQSGVPSRFSGSASGTDFTLTISSLQPEDVATYYCQQYQNFPRTFGQGTKLEIKR
notes: also called antibody VEGF-0089

Tests used:
[1] = molecular target: T1, VEGF-121-His (inhouse production) (human, UniProt P15692 207-395); assay: SPR (Biacore), hVEGF-A121 captured by anti-His antibody, Fab injected, 25° C
T1 construct: His-tagged human VEGF-A121 used in the ELISAs and (captured by an anti-His antibody) in SPR; also called hVEGF-A121; his VEGF; not shown: His tag
T1 sequence: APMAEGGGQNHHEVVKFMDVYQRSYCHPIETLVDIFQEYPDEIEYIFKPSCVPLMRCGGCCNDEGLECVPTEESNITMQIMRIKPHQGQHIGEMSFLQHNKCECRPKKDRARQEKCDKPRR
Protocol: (§1) The surface was regenerated by injecting 10 mM Glycine pH 1.5 for 60s. […] Rate constants were calculated using the Langmuir 1:1 binding model within the Biacore® Evaluation software.
(§2) The affinity of the antibodies was determined by SPR using the same methods as described in Example 2. All Fab fragments of antibodies of the invention as listed in table 1 and table 5 were tested.

[2] = molecular target: T1, VEGF-121-His (inhouse production); assay: SPR (Biacore), hVEGF-A121 captured by anti-His antibody, Fab injected, 37° C
Protocol: as §1, §2

[3] = molecular target: T1, VEGF-121-His (inhouse production); assay: inhibition ELISA: antibody titrated against 0.7 nM VEGF-121-His; blocked partner plate-bound biotinylated VEGF-R1; anti-His POD readout
[4] = molecular target: T1, VEGF-121-His (inhouse production); assay: inhibition ELISA: antibody titrated against 0.7 nM VEGF-121-His; blocked partner plate-bound biotinylated VEGF-R2; anti-His POD readout
human VEGF-A121 = molecular target: T2, human VEGF-A121 (human, UniProt P15692 207-395); assay: cell-based or functional assay
T2 sequence: T1 sequence

[5] = molecular target: T1, VEGF-121-His (inhouse production); assay: Biacore, Fab stressed 2 w/37° C./pH 7.4
Protocol: (§3) Antibody samples were formulated in 20 mM His/HisCl, 140 mM NaCl, pH 6.0, and were split into three aliquots: one aliquot was re-buffered into PBS, respectively, and two aliquots were kept in the original formulation. The PBS aliquot and one His/HisCl aliquot were incubated for 2 weeks (2 w) at 40° C. (His/NaCl) or 37° C. (PBS) in 1 mg/ml, the PBS sample was incubated further for total 4 weeks (4 w). The third control aliquot sample was stored at −80° C.

[6] = molecular target: T1, VEGF-121-His (inhouse production); assay: Biacore, Fab stressed 2 w/40° C./pH 6.0
Protocol: as §3

[7] = molecular target: T1, VEGF-121-His (inhouse production); assay: Biacore, Fab stressed 4 w/37° C./pH 7.4
Protocol: as §3

[8] = molecular target: T1, VEGF-121-His (inhouse production); assay: direct ELISA on plate-coated VEGF-121-His
Protocol: After washing 3 times with 90 μl/well PBST-buffer (bidest water, 10×PBS Roche #11666789001+0.1% Tween® 20) blocking buffer (bidest water, 10×PBS Roche #11666789001+2% Bovine Serum Albumin Fraction V, fatty acid free, Roche, #10735078001+0.05% Tween® 20) was added 90 μl/well and incubated for 1 h at room temperature. […] After incubation for 1 h at room temperature, plates were again washed 3 times with 90 μl/well PBST-buffer. […] After washing 3 times with 90 μl A PBST-buffer, 25 μl TMB (Roche, #11 835 033 001) was added to each well. After 3 min incubation at RT, signals were detected at 370 nm/492 nm on a Tecan Safire 2 Reader.

[9] = molecular target: T1, VEGF-121-His (inhouse production); assay: SPR (Biacore), hVEGF-A121 captured by anti-His antibody, Fab injected, 25° C; remark: listed apart in the source
Protocol: as §1
(§4) The affinity of the antibodies was determined by SPR using the same methods as described in Example 2. All Fab fragments as listed in table 1 and table 2 were tested.

[10] = molecular target: T1, VEGF-121-His (inhouse production); assay: SPR (Biacore), hVEGF-A121 captured by anti-His antibody, Fab injected, 37° C; remark: listed apart in the source
Protocol: as §1, §4

[11] = molecular target: T1, VEGF-121-His (inhouse production); assay: inhibition ELISA: antibody titrated against 0.7 nM VEGF-121-His; blocked partner plate-bound biotinylated VEGF-R2; anti-His POD readout; remark: listed apart in the source
Protocol: (§5) Plates were incubated for 1 h at room temperature. […] Plates were incubated for 1 h at room temperature. […] After washing 3 times with 90 μl/well PB ST-buffer, 25 μl/well detection antibody (anti His POD, Bethyl, #A190-114P, 1:12000) in 1×OSEP was added. After incubation for 1 h at room temperature plates were washed 3 times with 90 μl PBST-buffer. 25 μl TMB (Roche, #11 835 033 001) was added to all wells simultaneously. After 10 min incubation at room temperature, signals were detected at 370 nm/492 nm on a Tecan Safire 2 Reader.

[12] = molecular target: T1, VEGF-121-His (inhouse production); assay: inhibition ELISA: antibody titrated against 0.4 nM VEGF-121-His; blocked partner plate-bound biotinylated VEGF-R2; anti-His POD readout
[13] = molecular target: T1, VEGF-121-His (inhouse production); assay: inhibition ELISA: antibody titrated against 0.7 nM VEGF-121-His; blocked partner plate-bound biotinylated VEGF-R2; anti-His POD readout; remark: listed apart in the source
Protocol: as §5

| Binder | Kd [1] | Kd [2] | IC50 (read off the curve) [3] | IC50 (read off the curve) [4] | IC50 in reporter gene assay (HEK293-NFAT-RE-Luc2P/KDR cells, luminescence, 25 ng/ml VEGF-A121) (human VEGF-A121) | VEGF-binding activity after stress (relative active concentration, normalized to unstressed aliquot) [5] | VEGF-binding activity after stress (relative active concentration, normalized to unstressed aliquot) [6] | VEGF-binding activity after stress (relative active concentration, normalized to unstressed aliquot) [7] | EC50 (read off the curve) [8] | Kd [9] | Kd [10] | IC50 (read off the curve) [11] | IC50 (read off the curve) [12] | IC50 (read off the curve) [13] |
| --- | --- | --- | --- | --- | --- | --- | --- | --- | --- | --- | --- | --- | --- | --- |
| B1 | 0.052 nM | 0.109 nM | ~0.9 nM | ~0.7 nM |  |  |  |  |  |  |  |  |  |  |
| B2 | 0.143 nM | 0.11 nM |  |  | 0.59 nM | 102 | 101 | 101 | ~0.2 nM | 0.134 nM | 0.099 nM | ~10 ng/mL | ~0.2 nM | 1 to 2 nM |
